Assay results reported in patent US20100003195A1 (published 2010).

T1: human KDR-Fc chimeric fusion (R&D Systems #357-KD-05) (human, UniProt P35968 20-764)
T1 chain: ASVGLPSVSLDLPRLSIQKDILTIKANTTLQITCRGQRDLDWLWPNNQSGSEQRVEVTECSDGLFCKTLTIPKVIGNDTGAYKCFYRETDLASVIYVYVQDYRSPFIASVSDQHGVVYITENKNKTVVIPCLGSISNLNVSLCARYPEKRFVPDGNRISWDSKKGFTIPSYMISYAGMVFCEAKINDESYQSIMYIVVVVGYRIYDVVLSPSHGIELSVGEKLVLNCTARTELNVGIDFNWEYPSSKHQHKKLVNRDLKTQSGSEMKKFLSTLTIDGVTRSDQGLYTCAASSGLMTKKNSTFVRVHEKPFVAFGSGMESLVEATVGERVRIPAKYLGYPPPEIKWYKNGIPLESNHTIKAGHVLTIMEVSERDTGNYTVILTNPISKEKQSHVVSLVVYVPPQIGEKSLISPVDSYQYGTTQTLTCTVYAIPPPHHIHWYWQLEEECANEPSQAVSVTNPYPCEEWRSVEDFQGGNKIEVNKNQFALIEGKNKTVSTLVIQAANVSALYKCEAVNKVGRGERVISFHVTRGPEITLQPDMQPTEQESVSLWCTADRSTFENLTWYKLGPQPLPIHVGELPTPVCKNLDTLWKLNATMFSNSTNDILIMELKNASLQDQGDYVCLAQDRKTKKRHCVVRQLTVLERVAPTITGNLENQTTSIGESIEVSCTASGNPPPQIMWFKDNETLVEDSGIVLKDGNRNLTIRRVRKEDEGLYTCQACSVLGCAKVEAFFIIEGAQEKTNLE


Molecular target: T1, human KDR-Fc chimeric fusion (R&D …)
Assay: -; KD, B

| Kd [nM] | Binder |
| --- | --- |
| 35 | SRVCWEDSWGGEVCFRYGGGGK [SRVCWEDSWGGEVCFRYGGGGK (SEQ ID NO: 371)] |
| 910 | VCWEDSWGGEVCFGGGK [VCWEDSWGGEVCFGGGK (SEQ ID NO: 368)] |
| 1300 | GDSRVCWEDSWGGEVCFGGGK [GDSRVCWEDSWGGEVCFGGGK (SEQ ID NO: 369)] |
